Target: Pcdh γB6 ectodomain, γB6_(EC1–6), wild type
Assay: cryo-EM structure

stoichiometry N: 4
Substance: Pcdh γB6 ectodomain, γB6_(EC1–6), wild type (domain or fragment)
